The assay addresses prion-like C-terminal domain of TDP-43 (TDP-43PrLD), in droplets with poly-A RNA (UniProt Q13148). The assay can be described thus: co-sedimentation.

prion-like C-terminal domain of TDP-43 (TDP-43PrLD), in droplets with poly-A RNA, sequence (Q13148 267-414): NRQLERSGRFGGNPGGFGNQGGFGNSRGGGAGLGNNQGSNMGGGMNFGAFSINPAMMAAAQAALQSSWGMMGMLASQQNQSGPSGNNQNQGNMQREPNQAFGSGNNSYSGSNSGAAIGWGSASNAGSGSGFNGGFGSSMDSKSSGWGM

As for “α-synuclein, wild-type monomers (from UniProt P37840 1-140) (natural protein)”, the percent of total αS partitioned into the droplets was 8%.

Values taken from PMC10473755.
